{"source": "patent US8008452B2", "about": "“Phosphorylated Ndr kinase” (Novartis Forschungesstiftung, Zweigniederlassung Friedrich …, priority 2002, dated 2011)", "molecules": {"B1": {"name": "S281A: NDR1 alanine mutant of phosphorylation residue Ser281; GST fusion or HA-tagged (protein)", "chain": "MAMTGSTPCSSMSNHTKERVTMTKVTLENFYSNLIAQHEEREMRQKKLEKVMEEEGLKDEEKRLRRSAHARKETEFLRLKRTRLGLEDFESLKVIGRGAFGEVRLVQKKDTGHVYAMKILRKADMLEKEQVGHIRAERDILVEADSLWVVKMFYSFQDKLNLYLIMEFLPGGDMMTLLMKKDTLTEEETQFYIAETVLAIDSIHQLGFIHRDIKPDNLLLDSKGHVKLSDFGLCTGLKKAHRTEFYRNLNHSLPSDFTFQNMNSKRKAETWKRNRRQLAFATVGTPDYIAPEVFMQTGYNKLCDWWSLGVIMYEMLIGYPPFCSETPQETYKKVMNWKETLTFPPEVPISEKAKDLILRFCCEWEHRIGAPGVEEIKSNSFFEGVDWEHIRERPAAISIEIKSIDDTSNFDEFPESDILKPTVATSNHPETDYKNKDWVFINYTYKRFEGLTARGAIPSYMKAAK", "modifications": "left off: small tags and cut ends", "notes": "NDR1 alanine mutant of phosphorylation residue Ser281; GST fusion or HA-tagged"}}, "key": {"GST-NDR1": {"tested_on": "GST-NDR1", "experiment": "Immunodetection of GST-NDR1 phosphorylated on Ser281 or Thr444 after in vitro autophosphorylation", "assay_type": "biochemical, human", "conditions": "in vitro autophosphorylation with or without Ca2+/S100B", "procedure": "Either 1 microgram GST-NDR1 or HA-NDR1 immunoprecipitated from 100 microgram COS-1 detergent extracts as described above was separated on 10% SDS-PAGE and immunoblotted 2 h at RT or overnight at 4° C. with anti-Ser281P antisera (1:1000) in the presence of 50 microg/ml competing unphosphopeptide or anti-Thr444P purified antibody (1:500). Both antibodies were detected with horseradish peroxidase-conjugated donkey anti-rabbit Ig antibody (Amersham biosciences) and developed by ECL (chemiluminescence; Amersham Pharmacia Biotech).\nTo reliably quantify the effect of S100B on NDR1 phosphorylation status, rabbit polyclonal antibodies were raised against phosphoepitopes comprising Ser281 or Thr444. GST-NDR1 mutants were treated essentially as described in Example 2 and detected either with anti-NDR1_C-term antiserum or polyclonal antibodies recognising NDR1 phosphorylated on Ser281 or Thr444."}, "HA-NDR1": {"tested_on": "HA-NDR1", "experiment": "HA-NDR1 kinase assay on 12CA5 immunoprecipitates from transfected, treated COS-1 cells", "assay_type": "cell-based, human", "conditions": "COS-1 cells", "procedure": "In some experiments, the cells were treated for 60 min with 1 microM okadaic acid in 0.1% N,N-dimethylformamide (DMF) (Alexis Corp.), 50 microM BAPTA-AM (1,2-bis (o-aminophenoxy) ethane-N,N,N′,N′-tetraacetic acid tetra (acetoxy-methyl)ester) in 0.1% diimethylsulfoxide (DMSO; Sigma), or 20 microM thapsigargin in 0.1% DMSO (Alomone) 24 hours after transfection.\nTransfected and treated COS-1 cells were washed once with ice-cold PBS, and harvested by rubber policeman in 1 ml ice-cold PBS containing 1 mM Na3VO4 and 20 mM beta-glycerophosphate before lysis in 500 microliters of IP buffer (20 mM Tris-HCl pH 8.0, 150 mM NaCl, 1% Nonidet P-40, 10% glycerol, 1 mM Na3VO4, 20 mM beta-glycerolphosphate, 1 microM microcystin-LR, 50 mM NaF, 0.5 mM PMSF, 4 microM leupeptin, 1 mM benzamidine, and 1 tablet/10 ml IP of Complete protease inhibitors (Roche)). Lysates were centrifuged at 20 000 g for 20 min and triplicate aliquots (200 microg) of supernatant were precleared with protein A-Sepharose (Amersham Pharmacia Biotech) for 60 min and mixed subsequently for 3 h at 4° C. with 12CA5 antibody prebound to protein A-Sepharose (˜1 microg antibody bound to 2 microl beads). The beads were then washed twice with IP buffer, once for 10 min with IP buffer containing 1 M NaCl, once again for 10 min with IP buffer, and finally twice with 20 mM Tris-HCl pH 7.5 containing 4 microM leupeptin and 1 mM benzamidine. […] After 60 min incubation at 30° C., 15 microliters of supernatant were removed, and phosphate incorporation into the substrate peptide determined as described for GST-NDR1 above. […]\nTo test whether hMOB1 plays a role in NDR activation, myc-hMOB1 or the empty vector was cotransfected with HA-NDR1 in COS1 cells and treated with OA. […] The reactions were resolved on a 10% SDS PAGE and the radioactivity visualised by using a phosphoimager."}}, "data": [{"molecule": "B1", "values": [{"measurement": "phosphorylation of GST-NDR1 on Ser281 and Thr444 (phosphospecific antibodies)", "setting": "GST-NDR1", "result": "entirely abolishes the autophosphorylation on Thr444"}, {"measurement": "kinase activity of HA-NDR1 variants, +OA", "setting": "HA-NDR1; 1 microM okadaic acid 1 h", "result": 0.1113}, {"measurement": "kinase activity of HA-NDR1 variants, −OA", "setting": "HA-NDR1; solvent alone 1 h", "result": 0.0357}]}]}
